The source of these data is patent US20240417475A1 (AFFIMED, published 2024).

The target in test [1] is T1, cynomolgus FOLR1 expressed on CHO cells (cAg_126) (cynomolgus, UniProt A0A2K5U044 25-234).
T1 construct: whole, on cells; also called cyFOLR1
As to the kind of experiment: flow cytometry on cyFOLR1 CHO cells (cAg_126), one-site fit of MFI, Exp. 3. The method, then: (§1) To analyze binding of different antibody constructs to CHO cells transfected with human FOLR1 (cAg_125) and cynomolgus FOLR1 (cAg_126), 1-5×10⁵ were resuspended in 100 μL FACS buffer (PBS (BioWest, cat.: L0615-500) containing 2% heat-inactivated FCS (Invitrogen, cat.: 10500-064), and 0.1% sodium azide (Sigma, cat.: S8032_100G)) in round-bottom 96-well microtiter plates. After washing in FACS buffer, cells were incubated in 50 μL FACS buffer without antibodies or with titrated antibodies starting at a concentration of 1000 nM followed by eleven 3-fold serial dilutions for 40-50 min on ice in the dark. […] After washing, binding was measured by flow cytometry and mean fluorescence intensities (MFI) of cell samples were calculated and corrected for background staining using control cells stained with secondary antibodies only.
(§2) Binding of antibody constructs to huFOLR1-as well as cyFOLR1-transfected CHO cells was measured by flow cytometry. Equilibrium dissociation constants (KD) of antibody binding were calculated by plotting MFI values and fitting a non-linear regression model for one-site binding to hyperbolic dose-response curves using GraphPad Prism.
(In general: In flow cytometry, cells or beads pass a laser one at a time.)

Test [2] has as its target T2, cynomolgus CD16 expressed on CHO cells (cAg_36) (cynomolgus, UniProt Q8SPW2 17-254).
T2 construct: whole, on cells; also called cyCD16
As to the kind of experiment: flow cytometry on cyCD16 CHO cells (cAg_36), one-site fit of MFI, Exp. 2. The method, then:
(§3) After washing in FACS buffer, cells were incubated in 50 μL FACS buffer without antibodies or with titrated antibodies starting at a concentration of 1000 nM followed by elven 3-fold serial dilutions for 40-50 min on ice in the dark. […] After washing, binding was measured by flow cytometry and mean fluorescence intensities (MFI) of cell samples were calculated and corrected for background staining using control cells stained with secondary antibodies only.
(§4) Equilibrium dissociation constants (KD) of antibody binding were calculated by plotting MFI values and fitting a non-linear regression model for one-site binding to hyperbolic dose-response curves using GraphPad Prism.

The target in test [3] is T3, human CD16A (158F) expressed on CHO cells (cAg_34) (human, UniProt P08637 17-254).
T3 construct: also called huCD16A-transfected CHO cells
T3 sequence (P08637 17-254 limits assumed): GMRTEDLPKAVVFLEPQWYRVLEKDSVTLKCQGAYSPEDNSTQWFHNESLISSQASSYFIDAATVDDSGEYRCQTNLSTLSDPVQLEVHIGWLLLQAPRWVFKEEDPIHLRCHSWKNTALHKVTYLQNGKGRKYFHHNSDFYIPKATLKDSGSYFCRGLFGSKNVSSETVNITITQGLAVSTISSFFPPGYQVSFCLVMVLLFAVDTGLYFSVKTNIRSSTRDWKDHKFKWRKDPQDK
Briefly: flow cytometry on huCD16A (158F) CHO cells (cAg_34), one-site fit of MFI, Exp. 2. The method, then: as §3, §4

Test [4] addresses T2, cynomolgus CD16 expressed on CHO cells …. As to the kind of experiment: flow cytometry on cyCD16 CHO cells (cAg_36), one-site fit of MFI, Exp. 1. The method, then:
as §3, §4

For test [5], the target named is T4, human CD16A (158V) expressed on CHO cells (cAg_35) (human, UniProt P08637 17-254).
T4 construct: also called huCD16A (158V)
T4 sequence (P08637 17-254 F176V limits assumed): as the sequence (P08637 17-254 limits assumed) above, with F160V counted along it
Briefly: flow cytometry on huCD16A (158V) CHO cells (cAg_35), one-site fit of MFI, Exp. 1. The method, then:
as §3, §4

In test [6] the target is T3, human CD16A (158F) expressed on CHO …. Briefly: flow cytometry on huCD16A (158F) CHO cells (cAg_34), one-site fit of MFI, Exp. 1. The method, then:
as §3, §4

Test [7] deals with T5, human FOLR1 expressed on CHO cells (cAg_125) (human, UniProt P15328 25-234).
T5 construct: whole, on cells; also called huFOLR1
T5 sequence (P15328 25-234): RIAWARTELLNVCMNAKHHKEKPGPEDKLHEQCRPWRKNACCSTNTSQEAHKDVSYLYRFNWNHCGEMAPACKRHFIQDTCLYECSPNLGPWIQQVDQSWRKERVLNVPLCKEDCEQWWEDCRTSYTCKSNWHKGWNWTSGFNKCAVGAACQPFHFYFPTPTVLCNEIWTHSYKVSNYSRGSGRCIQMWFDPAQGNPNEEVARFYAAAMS
Briefly: flow cytometry on huFOLR1 CHO cells (cAg_125), one-site fit of MFI, Exp. 3. The method, then: as §1, §2

Test [8] concerns the target T4, human CD16A (158V) expressed on CHO …. As to the kind of experiment: flow cytometry on huCD16A (158V) CHO cells (cAg_35), one-site fit of MFI, Exp. 2. The method, then:
as §3, §4

Test [9] shares this target. Briefly: flow cytometry on huCD16A (158V) CHO cells (cAg_35), one-site fit of MFI, Exp. 3. The method, then: as §3, §4
Test [10] has as its target T1, cynomolgus FOLR1 expressed on CHO cells …. Briefly: flow cytometry on cyFOLR1 CHO cells (cAg_126), one-site fit of MFI, Exp. 1. The method, then:
as §1, §2

Test [11] has the same target. As to the kind of experiment: flow cytometry on cyFOLR1 CHO cells (cAg_126), one-site fit of MFI, mean. The method, then:
as §1, §2

Test [12] has as its target T3, human CD16A (158F) expressed on CHO …. Briefly: flow cytometry on huCD16A (158F) CHO cells (cAg_34), one-site fit of MFI, mean. The method, then:
as §3, §4

In test [13] the target is T5, human FOLR1 expressed on CHO cells …. Briefly: flow cytometry on huFOLR1 CHO cells (cAg_125), one-site fit of MFI, mean. The method, then:
as §1, §2

Test [14] addresses T1, cynomolgus FOLR1 expressed on CHO cells …. Briefly: flow cytometry on cyFOLR1-transfected CHO cells (cAg_126), on ice, FITC goat anti-human IgG detection. The method, then:
as §1

The target in test [15] is T3, human CD16A (158F) expressed on CHO …. Briefly: flow cytometry on huCD16A (158F)-transfected CHO cells (cAg_34), on ice, FITC goat anti-human IgG detection. The method, then:
as §3

Test [16] deals with T2, cynomolgus CD16 expressed on CHO cells …. As to the kind of experiment: flow cytometry on cyCD16-transfected CHO cells (cAg_36), on ice, FITC goat anti-human IgG detection. The method, then:
as §3

Test [17] deals with T3, human CD16A (158F) expressed on CHO …. Briefly: flow cytometry on huCD16A (158F) CHO cells (cAg_34), one-site fit of MFI, Exp. 3. The method, then: as §3, §4

T2 sequence (Q8SPW2 17-254): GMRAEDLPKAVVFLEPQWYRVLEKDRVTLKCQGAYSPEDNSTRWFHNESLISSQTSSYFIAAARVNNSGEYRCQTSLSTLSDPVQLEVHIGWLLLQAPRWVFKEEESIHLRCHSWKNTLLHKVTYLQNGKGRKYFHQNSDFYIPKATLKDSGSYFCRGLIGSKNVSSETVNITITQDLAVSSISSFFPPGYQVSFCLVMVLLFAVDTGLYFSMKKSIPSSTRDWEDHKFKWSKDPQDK
T1 sequence (A0A2K5U044 entry or part of it): as the sequence (P15328 25-234) above, with I2T, W4R, R37K, A146P, H171Y counted along it

B1: scFv-IgAb_387 (FOLR1_1×CD16a3) (bispecific antibody)
heavy: EVQLVESGGGVVQPGRSLRLSCSASGFTFSGYGLSWVRQAPGKGLEWVAMISSGGSYTYYADSVKGRFAISRDNAKNTLFLQMDSLRPEDTGVYFCARHGDDPAWFAYWGQGTPVTVSSASTKGPSVFPLAPSSKSTSGGTAALGCLVKDYFPEPVTVSWNSGALTSGVHTFPAVLQSSGLYSLSSVVTVPSSSLGTQTYICNVNHKPSNTKVDKKVEPKSCDKTHTCPPCPAPEFEGGPSVFLFPPKPKDTLMISRTPEVTCVVVAVSHEDPEVKFNWYVDGVEVHNAKTKPREEQYNSTYRVVSVLTVLHQDWLNGKEYKCKVSNKALPAPIEKTISKAKGQPREPQVYTLPPSREEMTKNQVSLTCLVKGFYPSDIAVEWESNGQPENNYKTTPPVLDSDGSFFLYSKLTVDKSRWQQGNVFSCSVMHEALHNHYTQKSLSLSPGGGGGSGGGGSGGGGSGGGGSGGGGSGGGGSSYELTQPLSVSVALGQTARITCGGNNIGSKSVHWYQQKPGQAPVLVIYQDKKRPSGIPERFSGSNSGNTATLTISRAQAGDEADYYCQVWDDYIVLFGCGTKLTVLGGSGGSGGSGGSGGSGGSGGSQVQLVQSGAEVKKPGASVKVSCKASGYTFTNYYMQWVRQAPGQCLEWMGIINPSGGVTSYAQKFQGRVTMTRDTSTSTVYMELSSLRSEDTAVYYCARGSAYYYDFADYWGQGTLVTVSSG
light: DIQLTQSPSSLSASVGDRVTITCSVSSSISSNNLHWYQQKPGKAPKPWIYGTSNLASGVPSRFSGSGSGTDYTFTISSLQPEDIATYYCQQWSSYPYMYTFGQGTKVEIKRTVAAPSVFIFPPSDEQLKSGTASVVCLLNNFYPREAKVQWKVDNALQSGNSQESVTEQDSKDSTYSLSSTLTLSKADYEKHKVYACEVTHQGLSSPVTKSFNRGEC
modifications: Chemically biotinylated (NHS-PEG4-biotin) in Example 22 only.
notes: Tetravalent bispecific scFv-IgAb; also called FOLR1×CD16A scFv-IgAb_387; FOLR1/CD16A scFv-IgAb_387; copies: 2 + 2
In the case of B1, the Kd (commonly the equilibrium constant for the complex coming apart) in test [1] worked out at 18.8 nM; in test [2], 26.2 nM; in test [3] it was 28.5 nM; in test [4] it was 26.6 nM; in test [5], 15.8 nM; in test [6], 16 nM. In addition, the Kd in [7] is 40.6 nM; in [8], 29.1 nM; in [9], 47.5 nM; in test [10], 14.9 nM; in [11], 16.3 nM; in test [12] it was 21.5 nM. The Kd in test [13] came to 35.8 nM; in test [17], 19.9 nM. Also, the EC50 (read off the curve) (in general, the concentration giving half of the maximal effect) in test [14] is roughly 20 nM; in test [15], roughly 20 nM; in test [16], roughly 30 nM.

B2: scFv-IgAb_381 (FOLR1_1×CD16a4) (bispecific antibody)
chain 1: EVQLVESGGGVVQPGRSLRLSCSASGFTFSGYGLSWVRQAPGKGLEWVAMISSGGSYTYYADSVKGRFAISRDNAKNTLFLQMDSLRPEDTGVYFCARHGDDPAWFAYWGQGTPVTVSSASTKGPSVFPLAPSSKSTSGGTAALGCLVKDYFPEPVTVSWNSGALTSGVHTFPAVLQSSGLYSLSSVVTVPSSSLGTQTYICNVNHKPSNTKVDKKVEPKSCDKTHTCPPCPAPEFEGGPSVFLFPPKPKDTLMISRTPEVTCVVVAVSHEDPEVKFNWYVDGVEVHNAKTKPREEQYNSTYRVVSVLTVLHQDWLNGKEYKCKVSNKALPAPIEKTISKAKGQPREPQVYTLPPSREEMTKNQVSLTCLVKGFYPSDIAVEWESNGQPENNYKTTPPVLDSDGSFFLYSKLTVDKSRWQQGNVFSCSVMHEALHNHYTQKSLSLSPGGGGGSGGGGSGGGGSGGGGSGGGGSGGGGSSYELTQPLSVSVALGQTARITCGGHNIGSKNVHWYQQKPGQAPVLVIYQDNKRPSGIPERFSGSNSGNTATLTISRAQAGDEADYYCQVWDNYNVLFGCGTKLTVLGGSGGSGGSGGSGGSGGSGGSQVQLVQSGAEVKKPGASVKVSCKASGYTFTSYYMHWVRQAPGQCLEWMGAIEPTYGSTSYAQKFQGRVTMTRDTSTSTVYMELSSLRSEDTAVYYCARGSAYYYDFADYWGQGTLVTVS
chain 2: DIQLTQSPSSLSASVGDRVTITCSVSSSISSNNLHWYQQKPGKAPKPWIYGTSNLASGVPSRFSGSGSGTDYTFTISSLQPEDIATYYCQQWSSYPYMYTFGQGTKVEIKRTVAAPSVFIFPPSDEQLKSGTASVVCLLNNFYPREAKVQWKVDNALQSGNSQESVTEQDSKDSTYSLSSTLTLSKADYEKHKVYACEVTHQGLSSPVTKSFNRGEC
notes: also called FOLR1×CD16A scFv-IgAb_381
Take B2: the Kd turned out to be 14 nM in test [1]; 31.7 nM in test [2]; 29.3 nM in [3]; 38.6 nM in test [4]; 22 nM in test [5]; 22.1 nM in [6]. Also, the Kd was 29.3 nM in [7]; 43.3 nM in [8]; 63.7 nM in test [9]; 11.5 nM in test [10]; 12.4 nM in test [11]; 26.2 nM in test [12]. The Kd turned out to be 24.7 nM in test [13] and 27.1 nM in [17]. The “EC50 (read off the curve)” value is roughly 10 nM in test [14], roughly 30 nM in test [15] and roughly 40 nM in test [16].
